Assays:
CD133+ GBM-CSCs = assay: Lectin panel labeling of CD133+ GBM-CSCs during differentiation (flow cytometry); assay type: binding, human; conditions: for recognition of GBM-CSCs by lectin after differentiation: after 12 days of differentiation; for recognition of undifferentiated GBM-CSCs by lectin: day 1, undifferentiated CD133+ GBM-CSCs
Method: The fact that lectin moieties recognize carbohydrates located on the surface of cells makes them a great tool to identify changes in glycosylation patterning during differentiation. We used a panel of 20 lectins to study the patterning of CD133^+ GBM-CSCs surface glycosylation during differentiation (Table 1). Neurospheres derived from CD133^+ GBM-CSCs were grown as mentioned above and were plated onto polyornithin and laminin coated tissue culture grade plastics. Within 10 hours the neuroshperes adhered and neurite formations were observed. Differentiation continued for 12 days, and harvested cells (day 1 and day 12) were labeled with our panel of lectins (FIG. 2A). […] Furthermore, the recognition and decrease in recognition of GalNAc and GlcNAc coincide with the expression of GBM-CSC marker CD133-glycosylation (CD133-G) and general stem cell markers OCT 4 and SOX2 (FIG. 3C). OCT 4 and SOX2 have been well studied in GBMs and are accepted indicators of sternness in GBM cell lines.

[1] = tested on: DBA positive sorted cells (CTB-1 GBM-CSCs); assay: Lectin reactivity of DBA positive sorted GBM-CSCs (flow cytometry); assay type: binding, human; conditions: for lectin reactivity of DBA positive sorted cells: day 1; for lectin reactivity of DBA positive sorted cells by day 12: day 12 of differentiation
Description: The percent of cells with specific carbohydrate expression as determined by flow cytometry using 8 different lectins. The data are means+/−SD of 3 independent assays of CTB-1 GBM-CSCs. CTB-1 cell line was stained with CD133, OCT4, and SOX2 antibody in addition to lectin staining Statistical significance (p≦0.05) is indicated by asterisk.
DBA lectin positive cells made up less than 1% of the total population and phenotypically appeared to proliferate at a much slower rate than the DBA negative population. […] Increased proliferation in DBA negative populations can be visualized via microscopy at day 1 and day 12 (FIG. 7). At day 12 the DBA negative population appears to be denser than the DBA positive population (FIG. 7), however, both populations are able to produce GFAP positive cells (Astrocytes) identical to the CD133 positive sorted cells (FIG. 7). […] DBA negative sorted cells contradict the aforementioned, and show low reaction towards GalNAc and GlcNAc recognizing lectins and this continues to decrease by day 12 (FIG. 8B). Con A remains high throughout in both populations and serves as a positive control (FIGS. 8A and 8B). However, GBM-CSC marker CD133-G and general stem cell markers OCT 4 and SOX 2 are high in the DBA positive sorted cells, and similar to DBA reactivity, decreases substantially by day 12 of differentiation (FIG. 8A). However, in the DBA negative population these stem cell markers uniformly are low at day one and are almost non-existent by day 12 (FIG. 8A). Until now CD133 has been considered the only marker for CSCs derived from GBM brain tumors. However, using cell sorting technology, DBA lectin, which recognizes GalNAc, we were able to separate CD133^+ cells from CD133− cells.

Molecule	recognition of GBM-CSCs by lectin after differentiation (CD133+ GBM-CSCs)	recognition of undifferentiated GBM-CSCs by lectin (CD133+ GBM-CSCs)	lectin reactivity of DBA positive sorted cells [1]	lectin reactivity of DBA positive sorted cells by day 12 [1]
SBA: lectin soybean agglutinin, recognizes the glycan moiety GalNAc	markedly decreased	highly recognized	high reactivity	decrease
PNA: lectin peanut agglutinin, recognizes the glycan moiety GalNAc (protein, UniProt P02872 24-273, looked up) Galactose-binding lectin: AETVSFNFNSFSEGNPAINFQGDVTVLSNGNIQLTNLNKVNSVGRVLYAMPVRIWSSATGNVASFLTSFSFEMKDIKDYDPADGIIFFIAPEDTQIPAGSIGGGTLGVSDTKGAGHFVGVEFDTYSNSEYNDPPTDHVGIDVNSVDSVKTVPWNSVSGAVVKVTVIYDSSTKTLSVAVTNDNGDITTIAQVVDLKAKLPERVKFGFSASGSLGGRQIHLIRSWSFTSTLITTTRRSIDNNEKKIMNMASA	markedly decreased	highly recognized	high reactivity	decrease
ECL: erythrina cristagalli lectin, recognizes the glycan moiety GlcNAc (protein, listed as Homo sapiens) VETISFSFSEFEPGNNDLTLQGAAIITQSGVLQLTKINQNGMPAWDSTGRTLYTKPVHIWDMTTGTVASFETRFSFSIEQPYTRPLPADGLVFFMGPTKSKPAQGYGYLGVFNNSKQDNSYQTLAVEFDTFSNPWDPPQVPHIGIDVNSIRSIKTQPFQLDNGQVANVVIKYDASSKILLAVLVYPSSGAIYTIAEIVDVKQVLPEWVDVGLSGATGAQRDAAETHDVYSWSFHASLPETND	noticeably decreased	highly recognized	highly reactive	decreased

From patent US20140010886A1, “COMPOSITIONS COMPRISING SACCHARIDE BINDING MOIETIES AND METHODS FOR TARGETED THERAPY” (GEORGIA TECH RESEARCH CORPORATION, priority 2011, published 2014)
